System: O=C(O)[C@H]1O[C@H](OP(=O)(O)OP(=O)(O)OC[C@H]2O[C@@H](n3ccc(=O)[nH]c3=O)[C@H](O)[C@@H]2O)[C@H](O)[C@@H](O)[C@@H]1O
Test: cells, lysate or membranes
Conditions: proteoliposomes preloaded with 10 mM UMP (antiport), 2 min uptake; transport; kcat printed as turnover rate

## Uut1 (Cryptococcus neoformans H99)
  Km: 0.6 ± 0.1 µM
  kcat: 0.08 s⁻¹
